Experimental findings from US20220412989A1, “COMPOSITIONS AND METHODS FOR DETECTING CELLS UNDERGOING FERROPTOSIS USING AN ANTIBODY” (THE TRUSTEES OF COLUMBIA UNIVERSITY IN THE CITY OF NEW YORK, priority 2020, published 2022) are described below.

One assay deals with HT-1080 cells. Put plainly: Immunofluorescence staining of cells treated with cell death inducers, membrane intensity. In kind it is cell-based, human. Here is the method:
HT-1080 (ATCC Cat #CRL-7951, RRID:CVCL_0317), A-673, SK-BR-3, SK-LMS-1 and Huh-7 cells were treated with 1 μM RSL3 for 4 h, 15 μM erastin for 8 h, 10 μM IKE for 8 h, 15 μM FINO2 for 8 h, 10 μM FIN56 for 8 h, 100 μM tBuOOH for 8 h, 1 μM staurosporine (STS) for 6 h, 2 μM camptothecin (CPT) for 24 h, 1 μM RSL3+5 μM Fer-1 for 4 h and 10 μM IKE+5 μM Fer-1 for 8 h on poly-lysine-coated cover slips (Sigma Aldrich P4832) in 24-well plate. Media were taken out and the cells were gently washed with PBS^++ (PBS with 1 mM CaCl2) and 0.5 mM MgCl2) twice. The cells were fixed and permeabilized by adding 200 μL/well of 4% paraformaldehyde (PFA) in PBS with 0.1% Triton X-100 (PBT), and incubated at room temperature for 18 min. The cells were then washed with PBT three times. Then the cells were blocked with 5% goat serum (ThermoFisher 50197Z) in PBT for 1 h at room temperature. The cells were incubated with purified mouse monoclonal antibodies (1:5 dilution), mouse mAb 3F3 FMA (1:500 dilution), Transferrin Receptor/CD71 Monoclonal Antibody, Clone: H68.4, Invitrogen (Thermo Fisher Scientific Cat #13-6800, RRID:AB_2533029, 1:250 dilution), Cd71 (D7G9X) XP® Rabbit mAb (Cell Signaling Technology Cat #13113, RRID:AB_2715594, 1:100 dilution), CD71 (3B8 2A1) (Santa Cruz Biotechnology Cat #sc-32272, RRID:AB_627167, 1:50 dilution), Tom20 (FL-145) (Santa Cruz Biotechnology Cat #sc-11415, RRID:AB_2207533, 1:250 dilution), PDI antibody [RL90]—ER Marker (Abcam Cat #ab2792, RRID:AB_303304, 1:100 dilution), Gm130 (D6B1) XP® Rabbit mAb (Cell Signaling Technology Cat #12480, RRID:AB_2797933, 1:3200 dilution), Anti-Malondialdehyde antibody (Abcam Cat #ab6463, RRID:AB_305484, 1:400 dilution), Anti-4 Hydroxynonenal antibody (Abcam Cat #ab46544, RRID:AB_722493, 1:50 dilution), ACSL4 Antibody (F-4) (Santa Cruz Biotechnology Cat #sc-365230, RRID:AB_10843105, 1:50 dilution), mouse mAb 1F83 (1:100 dilution), which specifically recognizes the malondialdehyde (MDA)-lysine adduct 4-methyl-1,4-dihydropyridine-3,5-dicarbaldehyde (MDHDC) (Yamada et al., 2001), in PBT with 1% BSA and 5% goat serum overnight at 4° C. The cells were washed with PBT for 5 min three times. The cells were incubated with Goat anti-Mouse IgG (H+L) Highly Cross-Adsorbed Secondary Antibody, Alexa Fluor 594 (Thermo Fisher Scientific Cat #A-11032, RRID:AB_2534091, 1:200 dilution) or Goat anti-Rabbit IgG (H+L) Highly Cross-Adsorbed Secondary Antibody, Alexa Fluor 488 (Thermo Fisher Scientific Cat #A-11034, RRID:AB_2576217, 1:200 dilution) at room temperature for 1 h. The cells were washed with PBT for 5 min three times. ProLong Diamond antifade mountant with DAPI (ThermoFisher P36962) was added to stain the nucleus. All images were captured on a Zeiss LSM 800 confocal microscope at Plan-Apochromat 63x/1.40 Oil DIC objective with constant laser intensity for all samples. When applicable, line-scan analysis was performed on representative confocal microscopy images using Zeiss LSM software to qualitatively visualize fluorescence overlap.
The quantification of the intensity of antibodies was analyzed using CellProfiler 3.1.8 (Carpenter et al., 2006) (CellProfiler Image Analysis Software, RRID:SCR_007358). Nuclei were firstly identified as primary objects using global minimum cross entropy strategy. […] Then mean intensities and size areas of nuclei, cytoplasm and plasma membranes were then measured and reported. […]

Assay [1] deals with A-673, SK-BR-3, Huh-7 and SK-LMS-1 cells. Kind of assay: Immunofluorescence staining in other cancer cell lines. The conditions noted are these: 1 μM RSL3, 4 h. In kind it is cell-based, human. Here is the method:
HT-1080 (ATCC Cat #CRL-7951, RRID:CVCL_0317), A-673, SK-BR-3, SK-LMS-1 and Huh-7 cells were treated with 1 μM RSL3 for 4 h, 15 μM erastin for 8 h, 10 μM IKE for 8 h, 15 μM FINO2 for 8 h, 10 μM FIN56 for 8 h, 100 μM tBuOOH for 8 h, 1 μM staurosporine (STS) for 6 h, 2 μM camptothecin (CPT) for 24 h, 1 μM RSL3+5 μM Fer-1 for 4 h and 10 μM IKE+5 μM Fer-1 for 8 h on poly-lysine-coated cover slips (Sigma Aldrich P4832) in 24-well plate. Media were taken out and the cells were gently washed with PBS^++ (PBS with 1 mM CaCl2) and 0.5 mM MgCl2) twice. The cells were fixed and permeabilized by adding 200 μL/well of 4% paraformaldehyde (PFA) in PBS with 0.1% Triton X-100 (PBT), and incubated at room temperature for 18 min. The cells were then washed with PBT three times. Then the cells were blocked with 5% goat serum (ThermoFisher 50197Z) in PBT for 1 h at room temperature. […] When applicable, line-scan analysis was performed on representative confocal microscopy images using Zeiss LSM software to qualitatively visualize fluorescence overlap.
The quantification of the intensity of antibodies was analyzed using CellProfiler 3.1.8 (Carpenter et al., 2006) (CellProfiler Image Analysis Software, RRID:SCR_007358). […] Then mean intensities and size areas of nuclei, cytoplasm and plasma membranes were then measured and reported. […]

Assay [2] concerns the target T1, transferrin receptor protein 1 (Homo sapiens, UniProt P02786).
T1 construct: First, we incubated 3F3-FMA with a cell lysate overnight; endogenous in cells; host or cells: HT-1080 (ATCC CRL-7951)
Put plainly: siRNA knockdown of TfR1 followed by immunofluorescence. In kind it is cell-based. The conditions noted are these: HT-1080 cells, siTfR1 vs siNT. Here is the method: 10 μM of siRNAs were combined with 250 μl of Opti-MEM serum-free media (Life Technologies 31985-070) in one tube. 6 μl of Lipofectamine RNAiMAX (Thermo Fisher Scientific 13778150) was combined with 250 μl of Opti-Mem media in another tube. They were equilibrated at r.t. for 5 min. Then two tubes were combined, transferred into 6-well plate and incubated at 37° C. for 20 min. 0.25 million HT-1080 cells were then added to 6-well plate and incubated for 48 h. Cells were reseeded in regular media for additional 24 h. Regular IF procedure was then conducted.

Assay [3] addresses T2, TfR1 in mouse liver tissue (Mus musculus, UniProt Q62351).
T2 construct: from tissue; host or cells: normal mouse liver, frozen sections
Put plainly: Staining of normal mouse liver frozen tissue. The conditions noted are these: frozen tissue samples. Here is the method: FIGS. 12A-12B show 3F3 FMA staining in human Huntington's disease brains and mouse tissues. In FIG. 12A, human HD and control brain tissues were fixed in 4% PFA for 24 h, perfused in 30% sucrose for 24 h, and stained with DAPI (nuclei, blue) and 3F3 FMA (red). The expression level of TfR1 is low. There was no difference between HD and control groups. In FIG. 12B, mouse liver tissues and mouse GBM tissues were fixed and stained with DAPI (nuclei, blue) and 3F3 FMA (red). 3F3 FMA was able to recognize mouse TfR1.

T1 sequence (P02786 whole entry): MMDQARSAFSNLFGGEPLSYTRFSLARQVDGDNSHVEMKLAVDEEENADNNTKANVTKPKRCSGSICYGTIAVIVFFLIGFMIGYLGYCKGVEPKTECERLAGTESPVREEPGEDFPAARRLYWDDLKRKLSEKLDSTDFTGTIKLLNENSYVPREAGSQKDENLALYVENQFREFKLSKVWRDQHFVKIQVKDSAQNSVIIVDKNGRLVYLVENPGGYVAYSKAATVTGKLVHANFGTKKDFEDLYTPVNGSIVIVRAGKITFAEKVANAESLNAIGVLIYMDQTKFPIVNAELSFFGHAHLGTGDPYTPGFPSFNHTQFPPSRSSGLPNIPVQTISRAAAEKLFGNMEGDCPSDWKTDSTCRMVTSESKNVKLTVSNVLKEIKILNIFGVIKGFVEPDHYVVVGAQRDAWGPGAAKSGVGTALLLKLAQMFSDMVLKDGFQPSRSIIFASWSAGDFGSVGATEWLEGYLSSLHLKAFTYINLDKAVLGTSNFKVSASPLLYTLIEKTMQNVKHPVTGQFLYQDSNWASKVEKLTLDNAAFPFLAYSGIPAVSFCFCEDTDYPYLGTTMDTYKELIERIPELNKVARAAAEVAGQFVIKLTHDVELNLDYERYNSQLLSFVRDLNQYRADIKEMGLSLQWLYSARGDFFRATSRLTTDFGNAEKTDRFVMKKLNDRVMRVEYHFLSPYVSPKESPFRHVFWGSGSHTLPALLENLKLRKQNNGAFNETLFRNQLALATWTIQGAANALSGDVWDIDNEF
T2 sequence (Q62351 whole entry): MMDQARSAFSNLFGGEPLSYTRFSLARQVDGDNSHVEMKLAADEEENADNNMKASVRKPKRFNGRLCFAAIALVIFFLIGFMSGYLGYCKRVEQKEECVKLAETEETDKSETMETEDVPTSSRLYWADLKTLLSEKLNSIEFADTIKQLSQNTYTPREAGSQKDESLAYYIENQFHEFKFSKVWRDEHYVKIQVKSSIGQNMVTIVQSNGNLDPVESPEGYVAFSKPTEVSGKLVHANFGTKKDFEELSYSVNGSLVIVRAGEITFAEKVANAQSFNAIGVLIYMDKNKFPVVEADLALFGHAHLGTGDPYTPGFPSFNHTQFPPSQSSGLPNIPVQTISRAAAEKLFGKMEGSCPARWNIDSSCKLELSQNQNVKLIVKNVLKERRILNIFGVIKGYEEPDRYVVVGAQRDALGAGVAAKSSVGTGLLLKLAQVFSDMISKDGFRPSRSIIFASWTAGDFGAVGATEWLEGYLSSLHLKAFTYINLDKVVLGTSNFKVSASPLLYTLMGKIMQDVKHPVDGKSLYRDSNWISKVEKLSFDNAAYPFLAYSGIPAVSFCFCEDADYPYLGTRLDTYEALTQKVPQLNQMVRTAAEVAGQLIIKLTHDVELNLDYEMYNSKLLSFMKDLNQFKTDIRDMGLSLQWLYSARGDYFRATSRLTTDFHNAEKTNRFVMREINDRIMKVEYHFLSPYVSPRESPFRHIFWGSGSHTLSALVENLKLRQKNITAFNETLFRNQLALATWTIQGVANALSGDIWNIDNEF

B1: 3F3-FMA: murine monoclonal IgG1 raised against ferroptotic membrane fractions; antigen is human transferrin receptor protein 1 (TfR1) (antibody, V domains shown)
VH: EVLLQQSGTELVRPGALVKLSCKASGFNIQDLYIHWVKQRPEQGLEWIGWIDPETDNTIYDPKFQGKASITADTSSNTAYLQLSSLTSEDTAMYYCSTGLLQWYFDVWGAGTAVTVSS
VL: DIVMTQSPSSLAMSIGQKVTMRCKSSQSLLNSYNQKNCLAWYQQKPGQSPKLLLYFVSTRESGVPDRFIGSGSGTDFTLTISSVQAEDLADYFCQQHYSTPLTFGAGTKLELK
As for B1, the “staining / membrane intensity in RSL3-induced ferroptosis” value in the assay with HT-1080 cells (1 μM RSL3, 4 h vs DMSO) is “stained cell boundaries and the inside puncta became brighter”. Further, the “cell surface / membrane staining in STS-induced apoptosis” value with HT-1080 cells (1 μM staurosporine, 6 h) is on record as “wasn't detected”. Also, the “cell surface / membrane intensity in camptothecin-induced apoptosis” value with HT-1080 cells (2 μM camptothecin, 24 h) is “no significant increase”. Moreover, the “membrane intensities in H2O2-treated cells” value in the assay on HT-1080 cells (1 mM H2O2, 4 h) is “didn't observe increased membrane intensities”. In the assay on HT-1080 cells (IKE, erastin, FIN56, FINO2 and tBuOOH, 8 h), the “staining pattern with other ferroptosis inducers” value is on record as “the same changes of 3F3-FMA pattern were observed”. Further, the “staining upon ferroptosis induction” value in assay [1] was “staining concentrated at the cell boundaries and became brighter”. The “staining in siTfR1-transfected cells” value in assay [2] is “wasn't any detectable staining”. In addition, the “staining signal in normal mouse liver” value in assay [3] was “robust signal”.
